Results: patent US7919577B2, “Adrenocorticotropic hormone analogs and related methods” (Colorado Seminary, priority 2004, dated 2011)

Tests used:
[1] = cited from earlier work
[2] = system: dexamethasone-suppressed male FVB/N mice; assay: in vivo Serum Corticosteroid Inhibition Assay (Example 2); set-up: species or system mouse; conditions: mACTH(1-24) alone 120 minutes after dexamethasone, blood one hour later
Description: The in vivo Serum Corticosteroid Inhibition Assay can include sequential administration of the test compound and the corticosteroid-producing compound by the following steps: first, an agent to suppress endogenous ACTH production was administered to a mouse subject, such as an intraperitoneal injection of dexamethasone; second, after waiting a suitable period of time for suppression of endogenous ACTH production (e.g., 1.5-2.0 hours), a test compound was administered to the mouse by a suitable method, such as intraperitoneal injection; third, after waiting a suitable period of time (e.g., 1 hour) for action of the test compound, a compound with corticosteroid-producing activity can be administered to the mouse by a suitable method, such as intraperitoneal injection; and fourth, after waiting a suitable period of time for the biological activity of both administered compounds to occur (e.g., 1 hour), a blood sample was taken from the subject and the level of serum corticosterone was determined by a suitable method, such as a competitive radioimmunoassay using ^125I RIA kit (ICN, Costa Mesa, Calif.). Optionally, steps two and three can be reversed (administering the corticosteroid-producing compound first, followed by administration of the test compound). The in vivo Serum Corticosteroid Inhibition Assay can also include co-administration of the test compound and the corticosteroid-producing compound by the following steps: first, an agent to suppress endogenous ACTH production was administered to a mouse subject, such as an intraperitoneal injection of dexamethasone; second, after waiting a suitable period of time for suppression of endogenous ACTH production (e.g., 1.5-2.0 hours), the corticosteroid-producing compound and a test compound were co-administered to the mouse by a suitable method, such as intraperitoneal injection; and third, after waiting a suitable period of time for the biological activity of both administered compounds to occur (e.g., 1 hour), a blood sample was taken from the subject and the level of serum corticosterone was determined by a suitable method, such as a competitive radioimmunoassay using ^125I RIA kit (ICN, Costa Mesa, Calif.). Also, in some embodiments, the first step in any in vivo Serum Corticosteroid Inhibition Assay can be replaced by a measurement of the initial endogenous corticosteroid or corticosteroid level in the blood of the subject in the manner of step four, instead of administering the agent to suppress ACTH production. Example 2 describes murine in vivo Serum Corticosteroid Inhibition Assays in detail.
A series of separate in vivo Serum Corticosteroid Inhibition Assays were performed to identify ACTH analogs that inhibit ACTH adrenal hormone production in vivo. The serum corticosterone levels of dexamethasone-suppressed mice were measured as described in Example 2 after administration of (1) ACTH (corticosteroid-producing compound), (2) an ACTH analog (test compound) followed by subsequent administration of ACTH, (3) a combination of ACTH and the ACTH analog and (4) the ACTH analog alone.
The in vivo Serum Corticosteroid Inhibition Assay was performed according the following method. The ACTH analog test compounds, such as those showing low activities in Example 1, were tested for their abilities to inhibit adrenal hormone production induced by unmodified ACTH.
First, two to three month-old male FVB/N mice from our colony, five per group, were injected intraperitoneally with dexamethasone (0.4 mg/0.1 ml PBS per mouse; Sigma, St. Louis, Mo.) to suppress their endogenous ACTH production.
Second, ninety to one hundred twenty minutes later, animals were injected subcutaneously between the shoulder blades with wild type ACTH and/or test ACTH analog peptides (1 μg/0.1 mL PBS/0.5% BSA) or with vehicle alone (0.1 mL PBS/0.5% BSA). […]

[3] = target: T1, adrenal ACTH receptors such as MC-2R (explanted adrenal membrane) (Mus musculus, UniProt Q64326+Q9D159); assay: in vitro Serum-free Adrenal Competitive Binding Assay (Example 3); conditions: cold peptide at 10 nM, 100 nM, 1000 nM; CPM; FIG. 3
T1 construct: the adrenal halves were macerated or otherwise dissociated using Dounce Homogenizer to form a membrane fraction; from tissue; host or cells: mouse adrenal glands (explanted, homogenised to a membrane fraction)
From the text: ACTH analog compounds that bind to adrenal membrane with a greater affinity than endogenous unmodified ACTH, and are able to displace unmodified ACTH can be identified using an in vitro Serum-free Adrenal Competitive Binding Assay (Example 3). […] A higher CPM level indicates the presence of greater amounts of the radiolabelled compound. […] Column 220 indicates the level of radio-labeled unmodified mACTH(1-24) detected after combining the explanted adrenal membrane with only the radio-labeled mACTH(1-24) for 2 hours (no competitive binding). Columns 230, 240, and 250 show the results of competitive binding assays for binding of non-radio-labeled (“cold”) mACTH(1-24) to displace the radio-labeled mACTH(1-24) from the explanted adrenal membrane (measured in column 220) by competitive binding to receptors such as MC-2R on the adrenal membrane. […]
ACTH analogs with the ability to bind adrenal receptors with a greater affinity than compounds with known adrenal binding activity (preferably ACTH) can also be identified by performing an in vitro Adrenal Competitive Binding Assay, whereby measurement of the reduction in the amount of the radiolabelled adrenal-binding compound (e.g., ACTH) is measured at various concentrations of non-radio-labeled ACTH analog test compound in a medium containing explanted adrenal membrane. […]

T1 sequence (Q64326 whole entry): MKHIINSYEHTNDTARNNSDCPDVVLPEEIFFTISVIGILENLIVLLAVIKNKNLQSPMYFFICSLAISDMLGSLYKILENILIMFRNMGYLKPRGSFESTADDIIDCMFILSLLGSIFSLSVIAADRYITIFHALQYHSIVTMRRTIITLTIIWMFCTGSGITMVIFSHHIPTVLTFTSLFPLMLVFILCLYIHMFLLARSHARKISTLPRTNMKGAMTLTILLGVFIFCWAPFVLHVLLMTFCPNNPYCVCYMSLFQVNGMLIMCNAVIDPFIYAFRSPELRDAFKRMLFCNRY
T1 sequence (Q9D159 whole entry): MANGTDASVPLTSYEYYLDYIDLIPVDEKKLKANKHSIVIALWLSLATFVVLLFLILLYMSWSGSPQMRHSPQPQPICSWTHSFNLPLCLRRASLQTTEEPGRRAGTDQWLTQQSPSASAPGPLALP

N-Ser^1-Tyr-Ser-Met-Glu^5-His-Phe-Arg-Trp-Gly^10-Lys-Pro-Val-Gly-Lys^15-Lys-Arg-Arg-Pro-Val^20-Lys-Val-Tyr-Pro-Ac [mACTH(1-24), reference compound]
half life in blood [1]: less than 20 minutes | serum corticosterone at 180 minutes [2]: 500 ± 76 ng/mL | serum corticosterone at 180 minutes ([2]; listed as ACTH): 500 ± 76 ng/mL | displacement of radio-labeled mACTH(1-24) from explanted adrenal membrane [3]: displacement of the radio-labeled mACTH(1-24)
